Assay results from publication PMC11294389.

Tests used:
GFP-Atx3 77Q (human) = GFP-Atx3 77Q (human) (UniProt P54252); assay: co-IP; GFP-Trap agarose precipitates GFP-Atx3 from extracts of co-transfected 293T WT cells (1000 µg total protein, 20 µL bead slurry, 4 °C, 1 h); co-precipitated parkin detected by western blot and quantified by densitometry, n = 3
GFP-Atx3 15Q (human) = GFP-Atx3 15Q (human) (UniProt P54252); assay: as above

- reduction of co-precipitated parkin against parkin WT (GFP-Atx3 77Q (human)): 62%
- reduction of co-precipitated parkin against parkin WT (GFP-Atx3 15Q (human)): 87%
Substance: 6xMyc-parkin V380L (from UniProt O60260-1 1-465) (natural protein)
